Experimental data published in patent US20210205413A1 (Nektar Therapeutics, priority 2018, published 2021).
“Also recorded” adds a separate entry of the source.

Legend:
Tregs in human PBMC = assay: pSTAT5 induction in lymphocyte populations of human PBMC (flow cytometry, CyToF); format: cell-based; details: in vitro
Experimental: Impaired IL-2 production and regulatory T cell dysfunctions have been implicated as an immunological mechanism in multiple autoimmune diseases. While low-dose IL-2 can be used to stimulate Tregs for clinical benefit, poor pharmacokinetics necessitates daily delivery, adverse events are dose-limiting, and Treg increases are modest and short-lived. […] The affinity to the IL-2 receptor is assessed by surface plasmon resonance. Activity in human PBMC can be measured by pSTAT5 induction in multiple lymphocyte populations using flow cytometry and time-of-flight mass cytometry (CyToF). In vivo activity after subcutaneous administration in C57BL/6 mice or cynomolgus monkey is measured by changes in lymphocyte numbers and activation by flow cytometry. Ex vivo Treg function is determined by the inhibition of Tcon proliferation by isolated splenic Treg. Efficacy is assessed in a model of systemic lupus erythematosus (SLE) using MRL/MpJ-Faslpr mice. […] In mice, a single administration leads to sustained Treg mobilization for 7-10 days in blood and spleen without Tcon activation, an effect concomitant with induction of Treg activation markers and increased ex vivo suppressive capacity. […] Finally, an RUR20kD-IL-2 composition is efficacious in mouse models of SLE.

Tregs = assay: Single-dose PK/PD study in mice: Tregs in blood and spleen by flow cytometry; format: in vivo, C57BL/6 mice
Description: Following administration, blood and spleen samples are collected at days 1-7 and day 10 post administration. More particularly, at each time point, blood and spleen samples are collected; samples are pooled and assessed for pharmacodynamic analysis of drug action on lymphocyte cell populations by flow cytometry (see e.g. Example 5), expressed as a fold change relative to vehicle control. In addition to changes in cell numbers, functional markers and markers of activity are quantified. Finally, plasma drug concentration is also assessed.

Tcon proliferation = assay: In vitro Treg suppression assay (splenic Tregs of treated mice co-cultured with Tcon); format: cell-based, C57BL/6 mice
Experimental: The objective of this study is to assess the inhibitory function of regulatory T cells. […] Treg and Tcon are co-cultured at a range of ratios from 1:2 to 1:512 for three days. Cellular proliferation is evaluated by ^3H-thymidine incorporation over the final 16 hours of the assay, and the % of proliferating cells relative to plate controls is calculated.
Single-cell isolations are prepared for each spleen, and the resultant splenocyte mixtures are pooled for each dose group at each timepoint. A portion of the pooled sample equivalent to one spleen is aliquoted for immune cell profiling. The remaining splenocyte preparation is utilized for isolation of regulatory T cells (Tregs). […]
In vitro suppression assays are carried out in RPMI 1640 medium supplemented with 10% fetal bovine serum, 2 mM L-glutamine, 1 mM sodium pyruvate, 0.5 μM β-mercaptoethanol, and 1× antibiotic/antimycotic (100 units/mL penicillin, 100 μg/mL streptomycin and 250 ng/mL amphotericin B). […] The suppressive capacity of Tregs is assessed by the addition of Tregs to Tcon at different ratios (Treg:Tcon ratios of […] to 1:512). […] After washing cells free from unincorporated [3H]-thymidine, thymidine uptake is measured as counts-per-minute (CPM) using a microplate scintillation counter (TopCount NXT, Perkin Elmer). […]

[1] = Single dose pharmacokinetics in mice; format: in vivo, C57BL/6 Mice
[2] = C57BL/6 mice, single SC 0.03 mg/kg, plasma
[3] = C57BL/6 mice, single SC 0.1 mg/kg, plasma
[4] = C57BL/6 mice, single SC 0.3 mg/kg, plasma

## (1,3-bis(methoxypoly(ethylene glycol)10kDcarbamoyl)-2-propanoxy)-4-butanamide)interleukin-2) [RUR20kD-IL-2]
Tregs in human PBMC
  STAT5 phosphorylation in Tregs relative to other lymphocyte subsets: increased STAT5 phosphorylation relative to other lymphocyte subsets
Tregs; blood and spleen, single SC dose 0.03-0.3 mg/kg
  time of peak increase in CD4+ Treg cell numbers: four days following administration; also recorded: four days after administration
Tregs; blood and spleen, single administration
  duration of sustained Treg mobilization: 7 to 10 days
Tregs; single SC 0.3 mg/kg
  time until Treg levels return to baseline: 7 to 10 days
Tregs; single SC dose
  day ICOS expression returns to baseline: ≤ 7 days
  day of peak ICOS expression on Treg: 3 days
  percentage of proliferating (Ki67) Treg, duration: sustained through day 6
Tregs; single SC dose, highest dose 0.3 mg/kg, 0.3 mg/kg
  time of maximum of Treg activation markers (CD25 and Foxp3 MFI): in the first two days following administration; also recorded: within the first two days following administration
Tcon proliferation; Treg:Tcon ratio 1:2
  duration of increased Treg suppressive activity: maintained for four days
Tcon proliferation; Tregs isolated 1 and 4 days post dose, vs vehicle
  suppressive capacity of Tregs isolated after administration: greatly increased suppressive capacity
[1]; [2]
  AUCinf: 22900 ng·h/mL
  AUClast: 21500 ng·h/mL
  Cmax: 333 ng/mL
  Half-life: 53.8 h
  MRTinf: 83 h
  tmax: 7.92 h
[1]; [3]
  AUCinf: 102000 ng·h/mL
  AUClast: 97400 ng·h/mL
  Cmax: 1140 ng/mL
  Half-life: 53.8 h
  MRTinf: 81.4 h
  tmax: 7.92 h
[1]; [4]
  AUCinf: 245000 ng·h/mL
  AUClast: 238000 ng·h/mL
  Cmax: 3330 ng/mL
  Half-life: 44.4 h
  MRTinf: 71.5 h
  tmax: 24 h
[1]; mice, SC, range over doses
  tmax: 7.92 to 24 h
[1]; mice, range over doses
  half-lives: 1.85 to 2.24 days
